Test results as given in patent publication US20250092426, “CAS ENDONUCLEASES AND RELATED METHODS” (Flagship Pioneering Innovations VII, LLC, published 2025).

Target: T1, CasEnd-34 (synthetic construct)
T1 chain: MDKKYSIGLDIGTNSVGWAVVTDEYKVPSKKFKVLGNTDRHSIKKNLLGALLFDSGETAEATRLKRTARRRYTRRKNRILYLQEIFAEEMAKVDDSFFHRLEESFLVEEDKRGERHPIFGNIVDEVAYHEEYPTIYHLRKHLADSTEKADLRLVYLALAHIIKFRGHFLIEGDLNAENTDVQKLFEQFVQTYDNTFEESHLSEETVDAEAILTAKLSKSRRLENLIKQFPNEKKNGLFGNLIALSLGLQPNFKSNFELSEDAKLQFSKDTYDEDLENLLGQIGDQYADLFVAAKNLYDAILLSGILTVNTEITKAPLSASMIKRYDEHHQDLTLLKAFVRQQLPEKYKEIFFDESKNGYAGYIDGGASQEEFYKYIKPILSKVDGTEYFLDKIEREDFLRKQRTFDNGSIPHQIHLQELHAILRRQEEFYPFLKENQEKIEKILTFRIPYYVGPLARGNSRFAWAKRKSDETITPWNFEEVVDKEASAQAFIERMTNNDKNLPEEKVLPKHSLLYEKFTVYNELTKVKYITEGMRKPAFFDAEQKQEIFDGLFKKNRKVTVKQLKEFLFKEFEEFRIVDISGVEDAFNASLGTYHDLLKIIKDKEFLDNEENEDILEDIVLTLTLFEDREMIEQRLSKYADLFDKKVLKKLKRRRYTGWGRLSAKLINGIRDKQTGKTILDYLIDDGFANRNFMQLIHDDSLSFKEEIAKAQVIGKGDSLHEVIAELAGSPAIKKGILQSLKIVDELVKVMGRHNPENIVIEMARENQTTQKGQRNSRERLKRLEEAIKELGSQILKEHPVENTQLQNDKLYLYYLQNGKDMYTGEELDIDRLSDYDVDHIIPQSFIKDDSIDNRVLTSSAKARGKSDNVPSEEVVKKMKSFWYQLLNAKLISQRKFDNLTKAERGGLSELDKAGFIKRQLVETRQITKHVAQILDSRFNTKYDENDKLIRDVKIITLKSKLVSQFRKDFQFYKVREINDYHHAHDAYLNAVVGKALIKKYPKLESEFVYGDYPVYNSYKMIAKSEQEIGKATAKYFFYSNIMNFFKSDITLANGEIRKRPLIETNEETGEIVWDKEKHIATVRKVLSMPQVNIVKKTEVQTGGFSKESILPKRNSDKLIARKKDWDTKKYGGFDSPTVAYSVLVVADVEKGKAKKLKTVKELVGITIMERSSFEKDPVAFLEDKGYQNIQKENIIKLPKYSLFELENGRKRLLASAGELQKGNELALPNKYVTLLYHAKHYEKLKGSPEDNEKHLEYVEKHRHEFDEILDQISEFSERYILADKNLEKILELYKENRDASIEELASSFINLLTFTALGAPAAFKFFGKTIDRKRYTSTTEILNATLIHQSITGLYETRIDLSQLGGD
Test: cell_activity; +++; HEK293T; PAM not stated
Procedure, shortened: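 Editing activity was scored as the fraction of GFP+ cells on day 4 by flow cytometry. BFP-expressing HEK293T cells (250,000) received by nucleofection 200 ng plasmid for the RT-Cas fusion protein and 200 ng template RNA plasmid designed to convert BFP to GFP.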

B1: BFP-to-GFP template RNA ; BFP reporter protospacer (ssRNA ; dsDNA)
RNA: GCCGAAGCACUGCACGCCGUGUUUUAGAGCUAGAAAUAGCAAGUUAAAAUAAGGCUAGUCCGUUAUCAACUUGAAAAAGUGGCACCGAGUCGGUGCACCCUGACGUACGGCGUGCAGUGCUU
DNA 1: GCCGAAGCACTGCACGCCGT
DNA 2: ACGGCGTGCAGTGCTTCGGC
  activity: ≥ 100 % of reference
